In patent US8512703B2, “Idiotypic vaccine” (Areta International S.R.L., priority 2007, dated 2013):

T1: Class I HLA molecule A*0101 in recombinant form
T1 MHC heavy: not shown

T2: Class I HLA molecule A*0201 in recombinant form
T2 construct: also called HLA-A*0201
T2 MHC heavy: not shown

T3: Class I HLA molecule A*1101 in recombinant form (UniProt P04439 25-302)
T3 MHC heavy: not shown

T4: Class I HLA molecule A*2402 in recombinant form
T4 MHC heavy: not shown

T5: Class I HLA molecule B*0801 in recombinant form (UniProt P01889 25-309, limits assumed)
T5 MHC heavy: not shown

T6: Class I HLA molecule B*1501 in recombinant form (limits assumed)
T6 MHC heavy: not shown


Target: T1, Class I HLA molecule A*0101 in …
Experiment: iTopia ELISA-like peptide-HLA binding
Description: (§1) In order to identify and validate the immunogenic epitopes of the protein VK3-20, the iTopia™ high-throughput Epitope Discovery System was used (Beckman Coulter).

Binder	Bond results [%]
RLLIYGASS [VK3-20 peptide No 46 RLLIYGASS]	0
SYLAWYQQK [VK3-20 peptide No 32 SYLAWYQQK]	0
IVLTQSPGT [VK3-20 peptide No 2 IVLTQSPGT]	1
KPGQAPRLL [VK3-20 peptide No 40 KPGQAPRLL]	0
RTFGQGTKV [VK3-20 peptide No 97 RTFGQGTKV]	1
VLTQSPGTL [VK3-20 peptide No 3 VLTQSPGTL]	0
QYGSSPRTF [VK3-20 peptide No 91 QYGSSPRTF]	1
TLSCRASQI (also called P20) [VK3-20 peptide No 20 TLSCRASQI]	1
SQIVSSSYL [VK3-20 peptide No 26 SQIVSSSYL]	1
LIYGASSRA [VK3-20 peptide No 48 LIYGASSRA]	1
RLEPEDFAV [VK3-20 peptide No 78 RLEPEDFAV]	1
FTLTISRLE [VK3-20 peptide No 72 FTLTISRLE]	4
IVSSSYLAW [VK3-20 peptide No 28 IVSSSYLAW]	0
VSSSYLAWY [VK3-20 peptide No 29 VSSSYLAWY]	44
GQAPRLLIY [VK3-20 peptide No 42 GQAPRLLIY]	0
SPRTFGQGT [VK3-20 peptide No 95 SPRTFGQGT]	1
YLAWYQQKP [VK3-20 peptide No 33 YLAWYQQKP]	0
QQYGSSPRT [VK3-20 peptide No 90 QQYGSSPRT]	1
LLIYGASSR [VK3-20 peptide No 47 LLIYGASSR]	0
VYYCQQYGS [VK3-20 peptide No 86 VYYCQQYGS]	1
TQSPGTLSF [VK3-20 peptide No 5 TQSPGTLSF]	1

Target: T2, Class I HLA molecule A*0201 in …
Experiment: iTopia ELISA-like peptide-HLA binding
Description: as §1

Binder	Bond results [%]
RLLIYGASS [VK3-20 peptide No 46 RLLIYGASS]	24
SYLAWYQQK [VK3-20 peptide No 32 SYLAWYQQK]	10
IVLTQSPGT [VK3-20 peptide No 2 IVLTQSPGT]	22
KPGQAPRLL [VK3-20 peptide No 40 KPGQAPRLL]	2
RTFGQGTKV [VK3-20 peptide No 97 RTFGQGTKV]	30
VLTQSPGTL [VK3-20 peptide No 3 VLTQSPGTL]	23
QYGSSPRTF [VK3-20 peptide No 91 QYGSSPRTF]	0
TLSCRASQI (also called P20) [VK3-20 peptide No 20 TLSCRASQI]	28
SQIVSSSYL [VK3-20 peptide No 26 SQIVSSSYL]	24
LIYGASSRA [VK3-20 peptide No 48 LIYGASSRA]	32
RLEPEDFAV [VK3-20 peptide No 78 RLEPEDFAV]	19
FTLTISRLE [VK3-20 peptide No 72 FTLTISRLE]	22
VSSSYLAWY [VK3-20 peptide No 29 VSSSYLAWY]	4
GQAPRLLIY [VK3-20 peptide No 42 GQAPRLLIY]	10
SPRTFGQGT [VK3-20 peptide No 95 SPRTFGQGT]	0
YLAWYQQKP [VK3-20 peptide No 33 YLAWYQQKP]	41
QQYGSSPRT [VK3-20 peptide No 90 QQYGSSPRT]	12
LLIYGASSR [VK3-20 peptide No 47 LLIYGASSR]	33
VYYCQQYGS [VK3-20 peptide No 86 VYYCQQYGS]	1
TQSPGTLSF [VK3-20 peptide No 5 TQSPGTLSF]	3

target: Class I HLA molecule A*0301 in recombinant form (UniProt P04439 25-302); experiment: iTopia ELISA-like peptide-HLA binding
Description: as §1

Binder	Bond results [%]
RLLIYGASS [VK3-20 peptide No 46 RLLIYGASS]	0
SYLAWYQQK [VK3-20 peptide No 32 SYLAWYQQK]	23
IVLTQSPGT [VK3-20 peptide No 2 IVLTQSPGT]	1
KPGQAPRLL [VK3-20 peptide No 40 KPGQAPRLL]	2
RTFGQGTKV [VK3-20 peptide No 97 RTFGQGTKV]	37
ASQIVSSSY [VK3-20 peptide No 25 ASQIVSSSY]	2
VLTQSPGTL [VK3-20 peptide No 3 VLTQSPGTL]	2
QYGSSPRTF [VK3-20 peptide No 91 QYGSSPRTF]	1
TLSCRASQI (also called P20) [VK3-20 peptide No 20 TLSCRASQI]	2
SQIVSSSYL [VK3-20 peptide No 26 SQIVSSSYL]	4
RLEPEDFAV [VK3-20 peptide No 78 RLEPEDFAV]	2
FTLTISRLE [VK3-20 peptide No 72 FTLTISRLE]	2
IVSSSYLAW [VK3-20 peptide No 28 IVSSSYLAW]	4
VSSSYLAWY [VK3-20 peptide No 29 VSSSYLAWY]	2
GQAPRLLIY [VK3-20 peptide No 42 GQAPRLLIY]	10
SPRTFGQGT [VK3-20 peptide No 95 SPRTFGQGT]	2
YLAWYQQKP [VK3-20 peptide No 33 YLAWYQQKP]	4
QQYGSSPRT [VK3-20 peptide No 90 QQYGSSPRT]	3
LLIYGASSR [VK3-20 peptide No 47 LLIYGASSR]	4
VYYCQQYGS [VK3-20 peptide No 86 VYYCQQYGS]	0
TQSPGTLSF [VK3-20 peptide No 5 TQSPGTLSF]	1

Target: T3, Class I HLA molecule A*1101 in …
Experiment: iTopia ELISA-like peptide-HLA binding
Description: as §1

Binder	Bond results [%]
SYLAWYQQK [VK3-20 peptide No 32 SYLAWYQQK]	28
IVLTQSPGT [VK3-20 peptide No 2 IVLTQSPGT]	1
KPGQAPRLL [VK3-20 peptide No 40 KPGQAPRLL]	0
RTFGQGTKV [VK3-20 peptide No 97 RTFGQGTKV]	15
VLTQSPGTL [VK3-20 peptide No 3 VLTQSPGTL]	0
QYGSSPRTF [VK3-20 peptide No 91 QYGSSPRTF]	1
TLSCRASQI (also called P20) [VK3-20 peptide No 20 TLSCRASQI]	2
SQIVSSSYL [VK3-20 peptide No 26 SQIVSSSYL]	3
LIYGASSRA [VK3-20 peptide No 48 LIYGASSRA]	60
RLEPEDFAV [VK3-20 peptide No 78 RLEPEDFAV]	2
FTLTISRLE [VK3-20 peptide No 72 FTLTISRLE]	4
IVSSSYLAW [VK3-20 peptide No 28 IVSSSYLAW]	3
SPRTFGQGT [VK3-20 peptide No 95 SPRTFGQGT]	0
YLAWYQQKP [VK3-20 peptide No 33 YLAWYQQKP]	2
QQYGSSPRT [VK3-20 peptide No 90 QQYGSSPRT]	11
LLIYGASSR [VK3-20 peptide No 47 LLIYGASSR]	85
VYYCQQYGS [VK3-20 peptide No 86 VYYCQQYGS]	1
TQSPGTLSF [VK3-20 peptide No 5 TQSPGTLSF]	0

Target: T4, Class I HLA molecule A*2402 in …
Experiment: iTopia ELISA-like peptide-HLA binding
Description: as §1

Binder	Bond results [%]
RLLIYGASS [VK3-20 peptide No 46 RLLIYGASS]	0
SYLAWYQQK [VK3-20 peptide No 32 SYLAWYQQK]	29
IVLTQSPGT [VK3-20 peptide No 2 IVLTQSPGT]	11
ASQIVSSSY [VK3-20 peptide No 25 ASQIVSSSY]	13
VLTQSPGTL [VK3-20 peptide No 3 VLTQSPGTL]	18
QYGSSPRTF [VK3-20 peptide No 91 QYGSSPRTF]	65
TLSCRASQI (also called P20) [VK3-20 peptide No 20 TLSCRASQI]	14
SQIVSSSYL [VK3-20 peptide No 26 SQIVSSSYL]	16
FTLTISRLE [VK3-20 peptide No 72 FTLTISRLE]	18
IVSSSYLAW [VK3-20 peptide No 28 IVSSSYLAW]	34
VSSSYLAWY [VK3-20 peptide No 29 VSSSYLAWY]	12
GQAPRLLIY [VK3-20 peptide No 42 GQAPRLLIY]	12
SPRTFGQGT [VK3-20 peptide No 95 SPRTFGQGT]	12
YLAWYQQKP [VK3-20 peptide No 33 YLAWYQQKP]	14
VYYCQQYGS [VK3-20 peptide No 86 VYYCQQYGS]	21
TQSPGTLSF [VK3-20 peptide No 5 TQSPGTLSF]	28

target: Class I HLA molecule B*0702 in recombinant form (UniProt P01889 25-302); experiment: iTopia ELISA-like peptide-HLA binding
Description: as §1

Binder	Bond results [%]
RLLIYGASS [VK3-20 peptide No 46 RLLIYGASS]	0
SYLAWYQQK [VK3-20 peptide No 32 SYLAWYQQK]	4
IVLTQSPGT [VK3-20 peptide No 2 IVLTQSPGT]	1
KPGQAPRLL [VK3-20 peptide No 40 KPGQAPRLL]	29
RTFGQGTKV [VK3-20 peptide No 97 RTFGQGTKV]	1
VLTQSPGTL [VK3-20 peptide No 3 VLTQSPGTL]	0
TLSCRASQI (also called P20) [VK3-20 peptide No 20 TLSCRASQI]	3
SQIVSSSYL [VK3-20 peptide No 26 SQIVSSSYL]	10
RLEPEDFAV [VK3-20 peptide No 78 RLEPEDFAV]	4
FTLTISRLE [VK3-20 peptide No 72 FTLTISRLE]	11
VSSSYLAWY [VK3-20 peptide No 29 VSSSYLAWY]	1
SPRTFGQGT [VK3-20 peptide No 95 SPRTFGQGT]	41
LLIYGASSR [VK3-20 peptide No 47 LLIYGASSR]	4
TQSPGTLSF [VK3-20 peptide No 5 TQSPGTLSF]	0

Target: T5, Class I HLA molecule B*0801 in …
Experiment: iTopia ELISA-like peptide-HLA binding
Description: as §1

Binder	Bond results [%]
RLLIYGASS [VK3-20 peptide No 46 RLLIYGASS]	0
SYLAWYQQK [VK3-20 peptide No 32 SYLAWYQQK]	1
IVLTQSPGT [VK3-20 peptide No 2 IVLTQSPGT]	2
KPGQAPRLL [VK3-20 peptide No 40 KPGQAPRLL]	1
RTFGQGTKV [VK3-20 peptide No 97 RTFGQGTKV]	2
ASQIVSSSY [VK3-20 peptide No 25 ASQIVSSSY]	2
VLTQSPGTL [VK3-20 peptide No 3 VLTQSPGTL]	1
QYGSSPRTF [VK3-20 peptide No 91 QYGSSPRTF]	1
SQIVSSSYL [VK3-20 peptide No 26 SQIVSSSYL]	3
LIYGASSRA [VK3-20 peptide No 48 LIYGASSRA]	3
RLEPEDFAV [VK3-20 peptide No 78 RLEPEDFAV]	0
FTLTISRLE [VK3-20 peptide No 72 FTLTISRLE]	6
IVSSSYLAW [VK3-20 peptide No 28 IVSSSYLAW]	2
VSSSYLAWY [VK3-20 peptide No 29 VSSSYLAWY]	1
GQAPRLLIY [VK3-20 peptide No 42 GQAPRLLIY]	2
SPRTFGQGT [VK3-20 peptide No 95 SPRTFGQGT]	2
YLAWYQQKP [VK3-20 peptide No 33 YLAWYQQKP]	2
QQYGSSPRT [VK3-20 peptide No 90 QQYGSSPRT]	1
LLIYGASSR [VK3-20 peptide No 47 LLIYGASSR]	1
VYYCQQYGS [VK3-20 peptide No 86 VYYCQQYGS]	0
TQSPGTLSF [VK3-20 peptide No 5 TQSPGTLSF]	2

Target: T6, Class I HLA molecule B*1501 in …
Experiment: iTopia ELISA-like peptide-HLA binding
Description: as §1

Binder	Bond results [%]
RLLIYGASS [VK3-20 peptide No 46 RLLIYGASS]	0
SYLAWYQQK [VK3-20 peptide No 32 SYLAWYQQK]	0
IVLTQSPGT [VK3-20 peptide No 2 IVLTQSPGT]	0
KPGQAPRLL [VK3-20 peptide No 40 KPGQAPRLL]	0
RTFGQGTKV [VK3-20 peptide No 97 RTFGQGTKV]	4
ASQIVSSSY [VK3-20 peptide No 25 ASQIVSSSY]	49
VLTQSPGTL [VK3-20 peptide No 3 VLTQSPGTL]	0
QYGSSPRTF [VK3-20 peptide No 91 QYGSSPRTF]	2
TLSCRASQI (also called P20) [VK3-20 peptide No 20 TLSCRASQI]	1
SQIVSSSYL [VK3-20 peptide No 26 SQIVSSSYL]	19
LIYGASSRA [VK3-20 peptide No 48 LIYGASSRA]	11
RLEPEDFAV [VK3-20 peptide No 78 RLEPEDFAV]	2
FTLTISRLE [VK3-20 peptide No 72 FTLTISRLE]	3
IVSSSYLAW [VK3-20 peptide No 28 IVSSSYLAW]	0
VSSSYLAWY [VK3-20 peptide No 29 VSSSYLAWY]	2
GQAPRLLIY [VK3-20 peptide No 42 GQAPRLLIY]	49
SPRTFGQGT [VK3-20 peptide No 95 SPRTFGQGT]	2
YLAWYQQKP [VK3-20 peptide No 33 YLAWYQQKP]	2
QQYGSSPRT [VK3-20 peptide No 90 QQYGSSPRT]	24
VYYCQQYGS [VK3-20 peptide No 86 VYYCQQYGS]	1
TQSPGTLSF [VK3-20 peptide No 5 TQSPGTLSF]	44
